# Assay results as given in paper PMC4918640.
# Molecular target: extracellular domain of PDGFRα-Fc conjugated (human) (UniProt P16234)
# Assay: SPR + BLI
# Chain of UniProt P16234 (P16234 24-528): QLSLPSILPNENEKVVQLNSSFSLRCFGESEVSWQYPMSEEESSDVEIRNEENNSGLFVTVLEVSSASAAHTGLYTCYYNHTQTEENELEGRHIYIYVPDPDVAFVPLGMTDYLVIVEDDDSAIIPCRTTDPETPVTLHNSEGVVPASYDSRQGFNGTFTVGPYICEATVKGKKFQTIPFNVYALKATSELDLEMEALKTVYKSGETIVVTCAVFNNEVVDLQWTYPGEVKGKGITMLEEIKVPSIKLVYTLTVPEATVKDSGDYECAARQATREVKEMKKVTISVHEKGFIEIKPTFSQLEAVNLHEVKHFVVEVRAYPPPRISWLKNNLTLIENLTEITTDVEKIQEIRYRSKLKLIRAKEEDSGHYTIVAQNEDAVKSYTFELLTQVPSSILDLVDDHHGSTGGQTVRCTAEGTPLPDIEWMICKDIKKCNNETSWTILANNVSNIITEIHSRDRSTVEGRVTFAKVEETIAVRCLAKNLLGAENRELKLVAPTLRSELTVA
substance,measurement,value
soluble gHgLgO trimer (from UniProt P16832;P16750) (complex),Kd,2 nM
